From US20010029293A1 (ICOS, published 2001)
Where a chain is given by its changes, count along the chain named. Names may count otherwise.

Experiments:
[1] = molecular target: T1, LFA-1 (CD11a/CD18) on cells (human, UniProt P20701 26-1170; P05107 23-769); experiment: cell adhesion to coated shICAM-R, peptide 1-2 mg/ml
T1 construct: whole, on cells; on SKW3, JY, HL-60 cells, neutrophils, or CHO/COS transfectants; also called CD18/CD11a

[2] = molecular target: T1, LFA-1 (CD11a/CD18) on cells; experiment: JY cell adhesion to plate-bound chimera
human ICAM-R [3] = molecular target: T2, human ICAM-R (human, UniProt P32942 30-547); experiment: cell-based or functional assay
T2 chain: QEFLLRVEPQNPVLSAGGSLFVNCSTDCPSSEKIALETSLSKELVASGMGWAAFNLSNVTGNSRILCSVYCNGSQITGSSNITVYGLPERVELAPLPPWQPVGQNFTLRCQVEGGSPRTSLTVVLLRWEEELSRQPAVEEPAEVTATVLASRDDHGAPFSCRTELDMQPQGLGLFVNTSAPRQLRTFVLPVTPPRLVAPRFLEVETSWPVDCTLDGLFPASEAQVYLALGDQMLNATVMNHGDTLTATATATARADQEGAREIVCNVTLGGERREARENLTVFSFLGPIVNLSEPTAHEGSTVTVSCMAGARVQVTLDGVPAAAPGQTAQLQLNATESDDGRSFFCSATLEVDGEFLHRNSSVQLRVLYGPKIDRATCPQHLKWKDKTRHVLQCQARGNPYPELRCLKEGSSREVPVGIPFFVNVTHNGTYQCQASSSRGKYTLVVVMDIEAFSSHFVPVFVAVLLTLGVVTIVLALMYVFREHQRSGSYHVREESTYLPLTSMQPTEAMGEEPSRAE

human ICAM-R [4] = molecular target: T2, human ICAM-R; experiment: FACS, 5 µg/ml
[5] = molecular target: T3, chimeric Protein 3 (ICAM-R domains 1-3 / ICAM-1) (human, UniProt P05362 317-532); experiment: FACS, 5 µg/ml
T3 construct: range 317-532; on COS cells; also called Protein number 3; RD1-3.1D4-5

human ICAM-1 = molecular target: T4, human ICAM-1 (human, UniProt P05362 28-532); experiment: FACS, 5 µg/ml
T4 construct: whole, on cells; on transfected L or COS cells
T4 sequence (P05362 28-532): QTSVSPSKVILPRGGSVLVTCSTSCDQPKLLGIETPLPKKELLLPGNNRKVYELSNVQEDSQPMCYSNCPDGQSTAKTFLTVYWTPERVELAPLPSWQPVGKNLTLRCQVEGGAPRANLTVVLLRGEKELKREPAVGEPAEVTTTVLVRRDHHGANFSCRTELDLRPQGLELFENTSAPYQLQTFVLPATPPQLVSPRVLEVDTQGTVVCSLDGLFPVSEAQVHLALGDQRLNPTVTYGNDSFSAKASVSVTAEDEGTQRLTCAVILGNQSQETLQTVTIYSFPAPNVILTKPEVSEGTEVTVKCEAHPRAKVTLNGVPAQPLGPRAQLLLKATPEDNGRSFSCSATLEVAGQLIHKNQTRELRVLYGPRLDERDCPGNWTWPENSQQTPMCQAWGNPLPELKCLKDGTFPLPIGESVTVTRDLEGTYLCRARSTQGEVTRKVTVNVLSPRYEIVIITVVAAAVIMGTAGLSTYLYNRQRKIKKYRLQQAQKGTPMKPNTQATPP

soluble human ICAM-R [6] = molecular target: T5, soluble human ICAM-R (human, UniProt P32942 30-485); experiment: ELISA on coated shICAM-R; Low = 50% maximal binding at >1 µg/ml, High = at <1 µg/ml
T5 construct: baculovirus/Sf-9 product; also called shICAM-R; ICAM-Rt1
T5 chain: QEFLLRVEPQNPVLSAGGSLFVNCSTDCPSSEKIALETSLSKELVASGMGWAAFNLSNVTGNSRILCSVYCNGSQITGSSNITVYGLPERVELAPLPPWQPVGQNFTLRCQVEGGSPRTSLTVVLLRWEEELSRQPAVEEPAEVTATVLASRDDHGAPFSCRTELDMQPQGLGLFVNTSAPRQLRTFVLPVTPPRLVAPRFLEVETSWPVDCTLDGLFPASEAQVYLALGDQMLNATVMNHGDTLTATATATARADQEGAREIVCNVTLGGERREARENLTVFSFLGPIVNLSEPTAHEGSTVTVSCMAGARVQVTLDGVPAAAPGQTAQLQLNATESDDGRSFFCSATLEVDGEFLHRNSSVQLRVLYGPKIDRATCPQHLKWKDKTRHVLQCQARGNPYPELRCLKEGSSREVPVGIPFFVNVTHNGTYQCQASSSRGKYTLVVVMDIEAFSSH

soluble human ICAM-R [7] = molecular target: T5, soluble human ICAM-R; experiment: ELISA on coated shICAM-R
[8] = molecular target: T1, LFA-1 (CD11a/CD18) on cells; experiment: not described
VLA-4 (α4/β1) on cells = molecular target: T6, VLA-4 (α4/β1) on cells (UniProt P13612 34-1032; P05556 21-798, limits assumed); experiment: not described
T6 construct: whole, on cells; on Jurkat cells, T cells or COS transfectants

[9] = molecular target: T1, LFA-1 (CD11a/CD18) on cells; experiment: neutrophil adhesion
[10] = molecular target: Mac-1 (CD11b/CD18) on cells (UniProt P11215 17-1152; P05107 23-769); experiment: neutrophil adhesion
soluble human ICAM-R [11] = molecular target: T5, soluble human ICAM-R; experiment: blocking of biotinylated murine ICR-8.1 (competitor) binding to ICAM-R

T1 sequence (P20701 26-1170, chain 1 of 2): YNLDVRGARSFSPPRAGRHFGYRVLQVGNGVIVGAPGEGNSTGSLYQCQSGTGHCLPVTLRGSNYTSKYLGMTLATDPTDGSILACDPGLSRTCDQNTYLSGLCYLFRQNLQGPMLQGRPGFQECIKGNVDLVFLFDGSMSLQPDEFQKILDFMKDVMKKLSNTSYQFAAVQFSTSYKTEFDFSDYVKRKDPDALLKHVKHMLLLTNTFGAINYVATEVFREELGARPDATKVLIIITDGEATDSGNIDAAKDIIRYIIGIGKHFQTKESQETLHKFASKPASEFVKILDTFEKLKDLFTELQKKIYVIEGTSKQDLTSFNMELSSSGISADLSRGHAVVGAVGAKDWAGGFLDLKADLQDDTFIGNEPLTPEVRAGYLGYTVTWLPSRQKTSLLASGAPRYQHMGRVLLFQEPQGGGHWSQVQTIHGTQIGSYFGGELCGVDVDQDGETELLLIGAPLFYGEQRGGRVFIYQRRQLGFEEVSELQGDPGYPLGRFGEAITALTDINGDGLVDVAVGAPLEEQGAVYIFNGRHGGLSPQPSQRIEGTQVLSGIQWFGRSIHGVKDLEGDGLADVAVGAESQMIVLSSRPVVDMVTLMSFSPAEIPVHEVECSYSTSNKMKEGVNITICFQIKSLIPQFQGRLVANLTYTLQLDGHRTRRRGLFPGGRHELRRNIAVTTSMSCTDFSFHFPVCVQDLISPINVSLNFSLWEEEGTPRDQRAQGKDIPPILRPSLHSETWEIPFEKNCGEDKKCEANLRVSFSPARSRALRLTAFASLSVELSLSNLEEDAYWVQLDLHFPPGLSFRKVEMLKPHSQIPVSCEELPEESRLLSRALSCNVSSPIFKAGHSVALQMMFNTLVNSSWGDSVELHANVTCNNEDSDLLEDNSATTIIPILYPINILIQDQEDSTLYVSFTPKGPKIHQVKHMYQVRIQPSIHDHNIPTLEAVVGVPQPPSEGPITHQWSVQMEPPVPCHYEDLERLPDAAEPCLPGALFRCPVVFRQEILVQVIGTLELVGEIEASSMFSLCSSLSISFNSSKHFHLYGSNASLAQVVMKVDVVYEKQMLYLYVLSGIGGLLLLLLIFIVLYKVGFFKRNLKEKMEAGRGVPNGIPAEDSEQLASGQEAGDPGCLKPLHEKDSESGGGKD
T1 sequence (P05107 23-769, chain 2 of 2): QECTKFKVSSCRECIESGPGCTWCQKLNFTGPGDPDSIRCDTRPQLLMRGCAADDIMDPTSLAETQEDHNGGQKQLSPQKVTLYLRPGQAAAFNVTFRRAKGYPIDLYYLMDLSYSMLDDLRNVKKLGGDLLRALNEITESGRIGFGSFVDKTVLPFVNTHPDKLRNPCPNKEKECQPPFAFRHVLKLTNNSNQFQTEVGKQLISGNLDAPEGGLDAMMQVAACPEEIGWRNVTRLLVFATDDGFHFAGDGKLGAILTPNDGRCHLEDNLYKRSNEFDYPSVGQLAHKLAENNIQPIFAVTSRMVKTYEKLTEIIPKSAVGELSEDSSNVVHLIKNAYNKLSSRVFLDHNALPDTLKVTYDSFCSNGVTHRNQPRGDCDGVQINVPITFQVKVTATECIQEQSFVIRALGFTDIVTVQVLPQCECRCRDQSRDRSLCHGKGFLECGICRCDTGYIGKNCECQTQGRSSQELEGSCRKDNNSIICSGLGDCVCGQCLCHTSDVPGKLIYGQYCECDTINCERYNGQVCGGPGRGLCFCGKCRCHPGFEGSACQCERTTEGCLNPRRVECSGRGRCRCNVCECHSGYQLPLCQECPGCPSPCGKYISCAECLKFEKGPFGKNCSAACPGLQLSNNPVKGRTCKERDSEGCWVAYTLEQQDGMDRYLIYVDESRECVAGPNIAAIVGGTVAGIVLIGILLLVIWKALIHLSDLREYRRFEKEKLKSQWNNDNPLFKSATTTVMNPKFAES

## EKIALET [ICAM-R peptide 32-38]
[1]
  % Inhibition CD18-Dependent Binding (SKW3): 0%

B1: domain deletion ICAM-R/IgG chimera with ICAM-R domains 3, 4 and 5 (Fc fusion)
chain: VLPVTPPRLVAPRFLEVETSWPVDCTLDGLFPASEAQVYLALGDQMLNATVMNHGDTLTATATATARADQEGAREIVCNVTLGGERREARENLTVFSFLGPIVNLSEPTAHEGSTVTVSCMAGARVQVTLDGVPAAAPGQTAQLQLNATESDDGRSFFCSATLEVDGEFLHRNSSVQLRVLYGPKIDRATCPQHLKWKDKTRHVLQCQARGNPYPELRCLKEGSSREVPVGIPFFVNVTHNGTYQCQASSSRGKYTLVVVMDIEAFSSH
notes: not shown: human IgG1 hinge, CH2, CH3
[2]
  binding result: no binding

## DGQST [ICAM-1 peptide 70-74 (DGQST)]
[1]
  % Inhibition CD18-Dependent Binding (SKW3): 0%

B2: ICR-1.1 (antibody, mouse IgG2a, V domains shown)
VH: QVQLQQSGAELADPGASVKMSCKASGYTFTVYWMHWVKQRPGQGLEWIGYINPNTDYTEYNQRFQDKATLTADKSSSTAYMQLSSLTSEDSAVYYCARWGGNSYGLDYWGQGTSVTVSS
VL: QIVLTQSPALMSASPGEKVTMTCSASSSVSYIYWYQQKPRSSPKPWIYLTSNLASGVPARFSGSGSGASYSLTISIMEAEDAATYYCQQWKSIPLTFGAGTKLELK
notes: murine IgG2a, kappa; also called 26E3D; 26E3D-1
Human ICAM-R [3]
  IC50 (µg/ml), inhibition of SEA-induced PBL proliferation by plate-bound antibody: 63 µg/mL
Human ICAM-R [4]
  percent positive COS cell transfectants: 54.3%
[5]
  percent positive COS cell transfectants: 52.7%
Human ICAM-1
  percent positive COS cell transfectants: 2.43%
Soluble human ICAM-R [6]
  monoclonal antibody concentration at 50% maximal binding (ELISA EC50): > 1 mg/L

B3: ICR-1.1 antibody with HuVK (hybrid) (antibody, human IgG4, V domains shown)
VH: B2 VH with D13K
VL: DIQMTQSPSSLSASVGDRVTITCSASSSVSYIYWYQQKPGKAPKLLIYLTSNLASGVPSRFSGSGSGTDFTLTISSLQPEDFATYYCQQWKSIPLTFGQGTKLEIK
notes: human IgG4 and human kappa constant regions; also called HuVK version
Soluble human ICAM-R [7]
  fold deficit in binding against the murine progenitor chain: 2 fold

## GERREA [ICAM-R peptide 271-276]
[1]
  % Inhibition CD18-Dependent Binding (SKW3): 0%

B4: ICAM-R/IgG variant D231H-Ig (Fc fusion)
chain: T5 chain with D231H
notes: as for B1
[8]
  binding result: binds
VLA-4 (α4/β1) on cells
  binding result: binds

B5: ICAM-R/His fusion protein (receptor, not shown: small tags and cut ends)
chain: T5 chain
notes: CHO product
[9]
  binding result: binds
[10]
  binding result: binds

B6: ICAM-R/IgG chimera E37/A (Fc fusion)
chain: T5 chain with E37A
notes: also called ICAM-R E37/A; not shown: human IgG1 hinge, CH2, CH3
[10]
  binding result: binds
[2]
  binding result: no binding

B7: ICAM-R/IgG variant E37T-Ig (Fc fusion)
chain: T5 chain with E37A, T38S
notes: as for B1
[8]
  binding result: no binding

## GDQML [ICAM-R peptide 230-234 (GDQML)]
[1]
  % Inhibition CD18-Dependent Binding (SKW3): 0%

B8: ICR-8.1 (antibody, mouse IgG1, V domains shown)
VH: EIQLQQTGPELVKPGASVKISCKASGYSFTDCIILWVKQSHGKGLEWIGKINPYFGTTTYNLKFKGKATLTVDKSSSTAHMQLNSLTSEDSAVYYCARKEAYPDAMDYWGQGTSVTVSS
VL: DAVMTQTPLSLPVSLGDQASISCRSSQSLVHSNGDTYLHWYLQKPGQSPQLLIYKVSNRFSGVPDRFSGSGSGTDFTLKLSRVEAEDLGVYFCSQSTHVPYTFGGGTKLEIK
notes: murine IgG1, kappa; also called 46D7E; ATCC HB 11232
Human ICAM-R [3]
  IC50 (µg/ml), inhibition of SEA-induced PBL proliferation by plate-bound antibody: 1 µg/mL
Human ICAM-R [4]
  percent positive COS cell transfectants: 48.9%
[5]
  percent positive COS cell transfectants: 44.9%
Human ICAM-1
  percent positive COS cell transfectants: 1.08%

B9: ICR-8.1 miHuVHI/HuVK (antibody, human IgG4, V domains shown)
VH: QIQLVQSGAEVKKPGASVKVSCKASGYTFTDCIILWVRQAPGQGLEWMGKINPYFGTTTYAQKFQGRVTITADTSTSTAYMELSSLRSEDTAVYYCARKEAYPDAMDYWGQGTLVTVSS
VL: DIVMTQSPLSLPVTPGEPASISCRSSQSLVHSNGDTYLHWYLQKPGQSPQLLIYKVSNRFSGVPDRFSGSGSGTDFTLKISRVEAEDVGVYYCSQSTHVPYTFGQGTKVEIK
notes: human IgG4 and human kappa constant regions
Soluble human ICAM-R [11]
  fold less well in competition than murine ICR-8.1: ~2 fold
Soluble human ICAM-R [7]
  fold improvement in binding over the other recombinant ICR-8.1 antibodies: ~2 fold

B10: ICR-8.1 miHuVHI/MuVK (antibody, human IgG4, V domains shown)
VH: B9 VH
VL: B8 VL
notes: as for B9
Soluble human ICAM-R [11]
  fold less well in competition than murine ICR-8.1: ~2 fold
Soluble human ICAM-R [7]
  fold improvement in binding over the other recombinant ICR-8.1 antibodies: ~2 fold
